Results taken from patent publication US20200079833A1 (AstraZeneca / MedImmune, published 2020).
Starred links: 1 amine or outer side, 2 acyl side, 3 side chain; linkers in the order of their positions; H or OH if unused. Non-standard residues stand in square brackets, D forms with d. Groups on a side chain read outwards from the residue. Primed or numbered codes have the meaning given here. No end group written: not given here. *: point of attachment. γGlu = O=C(O)[C@H](CCC(=O)[*:2])N[*:1]; Stearoyl = CCCCCCCCCCCCCCCCCC(=O)*; αMeF = C[C@](N)(Cc1ccccc1)C(=O)O; αMeK = C[C@](N)(CCCCN)C(=O)O; Lauroyl = CCCCCCCCCCCC(=O)*; αMeS = C[C@](N)(CO)C(=O)O; PEG2′ = not defined here; Aib = CC(C)(N)C(=O)O

Assays:
Assay in all cases: cell-based or functional assay
[1] = target: GLP-1 receptor (GLP-1R), primary cAMP assay cell line (human, UniProt P43220 24-463)
[2] = target: glucagon receptor (GCGR), primary cAMP assay cell line (human, UniProt P47871 26-477)
glucagon receptor (GCGR), primary cAMP assay cell line, sequence (P47871 26-477): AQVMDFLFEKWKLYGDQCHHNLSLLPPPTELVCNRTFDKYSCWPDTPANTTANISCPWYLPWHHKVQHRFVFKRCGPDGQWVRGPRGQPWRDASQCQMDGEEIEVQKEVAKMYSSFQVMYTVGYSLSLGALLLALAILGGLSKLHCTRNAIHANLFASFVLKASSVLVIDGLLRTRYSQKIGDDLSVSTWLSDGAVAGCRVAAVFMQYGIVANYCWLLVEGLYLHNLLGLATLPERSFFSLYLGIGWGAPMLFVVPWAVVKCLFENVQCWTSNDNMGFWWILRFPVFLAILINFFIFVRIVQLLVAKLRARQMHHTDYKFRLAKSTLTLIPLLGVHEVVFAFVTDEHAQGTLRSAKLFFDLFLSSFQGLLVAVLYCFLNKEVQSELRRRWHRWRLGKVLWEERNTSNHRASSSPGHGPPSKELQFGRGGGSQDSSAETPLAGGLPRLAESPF

[3] = target: T1, glucose-dependent insulinotropic peptide (gastric inhibitory polypeptide) receptor (GIPR), primary cAMP assay … (human, UniProt P48546 22-466)
T1 sequence (looked up): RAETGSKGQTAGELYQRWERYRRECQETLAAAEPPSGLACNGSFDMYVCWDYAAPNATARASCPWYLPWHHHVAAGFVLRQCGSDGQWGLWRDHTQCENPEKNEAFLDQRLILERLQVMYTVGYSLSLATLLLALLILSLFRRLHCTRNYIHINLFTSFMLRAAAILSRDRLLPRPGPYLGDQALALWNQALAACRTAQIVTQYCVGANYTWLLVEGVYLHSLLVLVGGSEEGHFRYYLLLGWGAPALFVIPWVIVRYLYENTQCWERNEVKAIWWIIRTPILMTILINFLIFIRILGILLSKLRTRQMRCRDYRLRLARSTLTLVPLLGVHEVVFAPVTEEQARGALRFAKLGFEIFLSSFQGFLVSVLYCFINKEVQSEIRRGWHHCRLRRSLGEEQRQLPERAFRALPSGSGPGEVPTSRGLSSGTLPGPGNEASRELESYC

GLP-1 receptor (GLP-1R) = GLP-1 receptor (GLP-1R) (human, UniProt P43220 24-463)
glucagon receptor (GCGR) = glucagon receptor (GCGR) (human, UniProt P47871 26-477)
glucagon receptor (GCGR), sequence (P47871 26-477): as the sequence (P47871 26-477) above

[4] = target: T2, glucose-dependent insulinotropic peptide (gastric inhibitory polypeptide) receptor (GIPR) (human, UniProt P48546 22-466)
T2 sequence (looked up): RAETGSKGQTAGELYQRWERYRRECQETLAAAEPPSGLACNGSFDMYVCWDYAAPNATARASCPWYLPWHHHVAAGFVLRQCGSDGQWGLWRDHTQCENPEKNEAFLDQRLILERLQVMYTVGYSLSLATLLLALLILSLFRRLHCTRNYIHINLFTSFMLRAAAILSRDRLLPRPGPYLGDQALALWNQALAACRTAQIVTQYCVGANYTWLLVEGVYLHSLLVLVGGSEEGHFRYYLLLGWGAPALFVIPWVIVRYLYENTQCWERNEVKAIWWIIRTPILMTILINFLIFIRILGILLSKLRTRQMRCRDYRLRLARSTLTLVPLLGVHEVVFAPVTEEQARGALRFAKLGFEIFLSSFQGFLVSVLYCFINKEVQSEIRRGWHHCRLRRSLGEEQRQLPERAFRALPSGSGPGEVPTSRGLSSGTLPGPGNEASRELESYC

| Binder | cAMP Primary assay EC50, Mean pM GLP-1R [1] [pM] | cAMP Primary assay EC50, n1 [1] [nM] | cAMP Primary assay EC50, n2 [1] [nM] | cAMP Primary assay EC50, n1 [2] [nM] | cAMP Primary assay EC50, n2 [2] [nM] | cAMP Primary assay EC50, n1 [3] [nM] | cAMP Primary assay EC50, n2 [3] [nM] | Primary assay EC50 (cAMP), GLP-1R n1 (GLP-1 receptor (GLP-1R)) [nM] | Primary assay EC50 (cAMP), GLP-1R n2 (GLP-1 receptor (GLP-1R)) [nM] | Primary assay EC50 (cAMP), Mean pM GLP-1R (GLP-1 receptor (GLP-1R)) [pM] | Primary assay EC50 (cAMP), Gluc-R, first run (glucagon receptor (GCGR)) [nM] | Primary assay EC50 (cAMP), Gluc-R, second run (glucagon receptor (GCGR)) [nM] | Primary assay EC50 (cAMP), GIP-R, first run [4] [nM] | Primary assay EC50 (cAMP), GIP-R, second run [4] [nM] |
| --- | --- | --- | --- | --- | --- | --- | --- | --- | --- | --- | --- | --- | --- | --- |
| H[Aib]EGS[αMeF]TSDVSK([PEG2′-PEG2′-γGlu-Lauroyl])YLEGEK([PEG2′-PEG2′-γGlu-Lauroyl])A[αMeK]EFIAFK([PEG2′-PEG2′-γGlu-Lauroyl])VEGG-NH2 [SEQ ID NO: 477] | 264 | 0.226 | 0.302 | 19.6 | 19.6 | 19.6 | 19.6 |  |  |  |  |  |  |  |
| H[Aib]EGS[αMeF]TSDVSK([PEG2′-PEG2′-γGlu-Lauroyl])YLEK([PEG2′-PEG2′-γGlu-Lauroyl])EAA[αMeK]EFIAFK([PEG2′-PEG2′-γGlu-Lauroyl])VEGG-NH2 [SEQ ID NO: 475] | 288 | 0.228 | 0.347 | 19.5 | 19.5 | 19.5 | 19.5 |  |  |  |  |  |  |  |
| H[Aib]EGS[αMeF]TSDK([PEG2′-PEG2′-γGlu-Lauroyl])SSYLEK([PEG2′-PEG2′-γGlu-Lauroyl])EAA[αMeK]EFIAFK([PEG2′-PEG2′-γGlu-Lauroyl])VEGG-NH2 [SEQ ID NO: 471] | 374 | 0.277 | 0.47 | 19.6 | 19.6 | 19.6 | 19.6 |  |  |  |  |  |  |  |
| H[Aib]EGS[αMeF]TSDK([PEG2′-PEG2′-γGlu-Lauroyl])SSYLEGEAA[αMeK]K([PEG2′-PEG2′-γGlu-Lauroyl])FIAFK([PEG2′-PEG2′-γGlu-Lauroyl])VEGG-NH2 [SEQ ID NO: 474] | 290 | 0.279 | 0.3 | 19.9 | 19.9 | 19.9 | 19.9 |  |  |  |  |  |  |  |
| H[Aib]EGS[αMeF]TSDK([PEG2′-PEG2′-γGlu-Lauroyl])SSYLEGEK([PEG2′-PEG2′-γGlu-Lauroyl])A[αMeK]EFIAFK([PEG2′-PEG2′-γGlu-Lauroyl])VEGG-NH2 [SEQ ID NO: 473] | 434 | 0.399 | 0.47 | 19.6 | 19.6 | 19.6 | 19.6 |  |  |  |  |  |  |  |
| H[Aib]EGS[αMeF]TSDV[αMeS]SK([PEG2′-PEG2′-γGlu-Lauroyl])LEGEK([PEG2′-PEG2′-γGlu-Lauroyl])A[αMeK]EFIAFK([PEG2′-PEG2′-γGlu-Lauroyl])VEGG-NH2 [SEQ ID NO: 481] | 143 | 0.137 | 0.149 | 19.8 | 19.8 | 19.8 | 19.8 |  |  |  |  |  |  |  |
| H[Aib]EGS[αMeF]TSDV[αMeS]SYK([PEG2′-PEG2′-γGlu-Lauroyl])EGEK([PEG2′-PEG2′-γGlu-Lauroyl])A[αMeK]EFIAFK([PEG2′-PEG2′-γGlu-Lauroyl])VEGG-NH2 [SEQ ID NO: 485] | 196 | 0.167 | 0.224 | 19.6 | 19.6 | 19.6 | 19.6 |  |  |  |  |  |  |  |
| H[Aib]EGS[αMeF]TSDV[αMeS]SK([PEG2′-PEG2′-γGlu-Lauroyl])LEK([PEG2′-PEG2′-γGlu-Lauroyl])EAA[αMeK]EFIAFK([PEG2′-PEG2′-γGlu-Lauroyl])VEGG-NH2 [SEQ ID NO: 479] | 186 | 0.132 | 0.239 | 19.8 | 19.8 | 19.8 | 19.8 |  |  |  |  |  |  |  |
| H[Aib]EGS[αMeF]TSDV[αMeS]S[αMeF]LEGEAAK([PEG2′-PEG2′-Stearoyl])E[αMeF]IA[αMeF]VV[αMeK]GG-NH2 [SEQ ID NO 153] |  |  |  |  |  |  |  | 0.0079 | 0.005 | 6.4 | 27 | 27 | 27 | 27 |
| H[Aib]EGS[αMeF]TSDV[αMeS]SYK([PEG2′-PEG2′-γGlu-Lauroyl])EK([PEG2′-PEG2′-γGlu-Lauroyl])EAA[αMeK]EFIAFK([PEG2′-PEG2′-γGlu-Lauroyl])VEGG-NH2 [SEQ ID NO: 483] | 244 | 0.229 | 0.258 | 19.6 | 19.6 | 19.6 | 19.6 |  |  |  |  |  |  |  |
| H[Aib]EGS[αMeF]TSDVSK([PEG2′-PEG2′-γGlu-Lauroyl])YLEGK([PEG2′-PEG2′-γGlu-Lauroyl])AA[αMeK]EFIAFK([PEG2′-PEG2′-γGlu-Lauroyl])VEGG-NH2 [SEQ ID NO: 476] | 216 | 0.174 | 0.257 | 19.8 | 19.8 | 19.8 | 19.8 |  |  |  |  |  |  |  |
| H[Aib]EGS[αMeF]TSDV[αMeS]SYK([PEG2′-PEG2′-γGlu-Lauroyl])EGK([PEG2′-PEG2′-γGlu-Lauroyl])AA[αMeK]EFIAK([PEG2′-PEG2′-γGlu-Lauroyl])VVEGG-NH2 [SEQ ID NO: 468] | 73.5 | 0.0624 | 0.0845 | 20 | 20 | 20 | 20 |  |  |  |  |  |  |  |
| H[Aib]EGS[αMeF]TSDK([PEG2′-PEG2′-γGlu-Lauroyl])SSYLEGK([PEG2′-PEG2′-γGlu-Lauroyl])AA[αMeK]EFIAFK([PEG2′-PEG2′-γGlu-Lauroyl])VEGG-NH2 [SEQ ID NO: 472] | 287 | 0.297 | 0.277 | 19.9 | 19.9 | 19.9 | 19.9 |  |  |  |  |  |  |  |
| H[Aib]EGS[αMeF]TSDV[αMeS]SYK([PEG2′-PEG2′-γGlu-Lauroyl])EGK([PEG2′-PEG2′-γGlu-Lauroyl])AA[αMeK]EFIAFK([PEG2′-PEG2′-γGlu-Lauroyl])VEGG-NH2 [SEQ ID NO: 484] | 166 | 0.163 | 0.168 | 19.9 | 19.9 | 19.9 | 19.9 |  |  |  |  |  |  |  |
| H[Aib]EGS[αMeF]TSDV[αMeS]SYK([PEG2′-PEG2′-γGlu-Lauroyl])EGEAA[αMeK]K([PEG2′-PEG2′-γGlu-Lauroyl])FIAFK([PEG2′-PEG2′-γGlu-Lauroyl])VEGG-NH2 [SEQ ID NO: 486] | 212 | 0.165 | 0.259 | 19.9 | 19.9 | 19.9 | 19.9 |  |  |  |  |  |  |  |
| H[Aib]EGS[αMeF]TSDVSK([PEG2′-PEG2′-γGlu-Lauroyl])YLEGEAA[αMeK]K([PEG2′-PEG2′-γGlu-Lauroyl])FIAFK([PEG2′-PEG2′-γGlu-Lauroyl])VEGG-NH2 [SEQ ID NO: 478] | 118 | 0.103 | 0.134 | 19.8 | 19.8 | 19.8 | 19.8 |  |  |  |  |  |  |  |
